Read-outs that look alike come from different tables or passages of the source. No end group written: not given here.
What was measured:
bCPA1 = molecular target: T1, bCPA1 (Bos taurus, UniProt P00730); assay: Ki determination, tight-binding inhibition of metallocarboxypeptidase; assay type: biochemical, bovine
T1 sequence (P00730 111-419): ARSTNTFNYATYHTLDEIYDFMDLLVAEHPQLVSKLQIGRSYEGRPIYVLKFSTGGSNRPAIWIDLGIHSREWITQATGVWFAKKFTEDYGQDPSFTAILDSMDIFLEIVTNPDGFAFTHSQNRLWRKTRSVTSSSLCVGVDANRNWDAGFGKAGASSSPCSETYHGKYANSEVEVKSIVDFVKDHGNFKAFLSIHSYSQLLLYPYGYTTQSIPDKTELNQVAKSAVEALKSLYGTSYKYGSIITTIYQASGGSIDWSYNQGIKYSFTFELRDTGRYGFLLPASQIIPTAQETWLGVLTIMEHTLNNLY
Procedure: Inhibitory activities against CPA- and CPB-type forms (bovine and human variants of CPA1, CPA2, CPA4, CPB1, and TAFI) were assayed for all extracts, subject to the experimental conditions that enzyme (E), substrate (S) and inhibitor (I) concentrations as well as the [I]/[E] ratio and preincubation time followed the requirements for tight-binding inhibitor assays. Similar approaches were followed to measure the activities of proteases of different catalytic types, like pepsin, papain, trypsin and subtilisin [45, 46, 47, 48]. All assays were performed in triplicate at 25 °C in a multiplexed manner. For 96-well assays an iEMS spectrophotometer reader/dispenser FM (Labsystems, Finland) was used with a final reaction volume of 250 μL. For cuvette assays, a Cary 400 Bio spectrophotometer (Varian Inc., Palo Alto, CA, USA) spectrophotometer was used with a final reaction volume of 1 ml. The reactions were followed at 5 s intervals for 5 min and recorded as initial velocities. In the protease inhibition assays, mixtures of activity buffer, biological sample and enzyme were preincubated at 25 °C for 10min, before substrate addition. The assay conditions were as follows: for CPA-like enzymes, 7.0nM CPA, 0.1mM AAFP substrate in 20mM Tris-HCl pH 7.5, 500mMNaCl, 1% v/v dimethyl sulfoxide (DMSO), 0.05% w/v BRIJ-35 was used. For CPB-like enzymes, CPB 3.0nM CPB, 0.1mM AAFA substrate and activity buffer of 20 mM Tris-HCl pH [50].
The Ki values of natural and recombinant NvCI against bCPA1, hCPA1, hCPA2, rat CPA3, hCPA4, hCPB1, bTAFI, hTAFI, hCPD and hCPZ were determined by measuring the enzymatic residual activity (Vi/V0 = a) at different inhibitor concentrations and using a fixed enzyme and substrate concentrations as described above, where vi and v0 are the fraction of enzymatic activity in the presence and absence of inhibitor, respectively, in terms of initial velocities. The determination of Ki values was carried out on equilibrium conditions ([E0]/Ki ≤ 10), using a previously determined preincubation time of 15 min, required to establish enzyme-inhibitor equilibrium. Working temperature was 37 °C. The best estimates of Ki values were obtained by fitting the experimental data to the equation for tight-binding inhibitors by non-linear regression using the GraphPad Prisma 5 software (GraphPad Software, Inc., San Diego, CA, USA) at p < 0.05. The real Ki values against each of these A/B-type MCPs were calculated according to the equation described by Morrison and Copeland [19, 20].

bTAFI = molecular target: T2, bTAFI (Bos taurus, UniProt Q2KIG3); assay: as above; assay type: biochemical, bovine; details: tight-binding equation fit; substrate AAFA 0.1mM; enzyme-inhibitor mixture not preincubated; 37 °C; means (n = 3) ± SD
T2 sequence (Q2KIG3 115-423): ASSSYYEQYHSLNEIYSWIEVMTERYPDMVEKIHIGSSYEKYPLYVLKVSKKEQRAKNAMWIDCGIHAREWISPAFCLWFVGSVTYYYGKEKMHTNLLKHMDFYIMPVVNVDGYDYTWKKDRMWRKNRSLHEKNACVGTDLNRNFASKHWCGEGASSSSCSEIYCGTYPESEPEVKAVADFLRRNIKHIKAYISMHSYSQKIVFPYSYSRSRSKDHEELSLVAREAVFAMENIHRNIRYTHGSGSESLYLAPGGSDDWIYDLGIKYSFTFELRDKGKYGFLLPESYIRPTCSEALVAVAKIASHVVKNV
Procedure: (§1) Inhibitory activities against CPA- and CPB-type forms (bovine and human variants of CPA1, CPA2, CPA4, CPB1, and TAFI) were assayed for all extracts, subject to the experimental conditions that enzyme (E), substrate (S) and inhibitor (I) concentrations as well as the [I]/[E] ratio and preincubation time followed the requirements for tight-binding inhibitor assays. Similar approaches were followed to measure the activities of proteases of different catalytic types, like pepsin, papain, trypsin and subtilisin [45, 46, 47, 48]. All assays were performed in triplicate at 25 °C in a multiplexed manner. For 96-well assays an iEMS spectrophotometer reader/dispenser FM (Labsystems, Finland) was used with a final reaction volume of 250 μL. […] The reactions were followed at 5 s intervals for 5 min and recorded as initial velocities. […]
(§2) The Ki values of natural and recombinant NvCI against bCPA1, hCPA1, hCPA2, rat CPA3, hCPA4, hCPB1, bTAFI, hTAFI, hCPD and hCPZ were determined by measuring the enzymatic residual activity (Vi/V0 = a) at different inhibitor concentrations and using a fixed enzyme and substrate concentrations as described above, where vi and v0 are the fraction of enzymatic activity in the presence and absence of inhibitor, respectively, in terms of initial velocities. […]

hTAFI = molecular target: T3, hTAFI (Homo sapiens, UniProt Q96IY4); assay: as above; assay type: biochemical; details: tight-binding equation fit; substrate AAFA 0.1mM; enzyme-inhibitor mixture not preincubated; 37 °C; means (n = 3) ± SD
T3 sequence (Q96IY4 115-423): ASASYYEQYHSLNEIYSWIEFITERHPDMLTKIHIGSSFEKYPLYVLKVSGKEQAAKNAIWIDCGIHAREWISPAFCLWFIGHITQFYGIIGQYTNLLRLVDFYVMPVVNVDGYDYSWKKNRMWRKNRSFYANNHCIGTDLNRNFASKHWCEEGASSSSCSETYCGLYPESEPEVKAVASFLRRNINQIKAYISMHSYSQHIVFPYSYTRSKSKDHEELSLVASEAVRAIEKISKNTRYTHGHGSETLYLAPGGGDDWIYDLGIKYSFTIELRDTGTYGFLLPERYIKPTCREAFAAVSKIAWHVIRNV
Procedure: as §1, §2

bCPA and hCPA1 = assay: Competitive (double) titration with the tight-binding inhibitor TCI; assay type: biochemical; details: competing assays with the similar tight-binding inhibitor TCI

## NvCI: 53-residue, three-disulphide proteinaceous metallocarboxypeptidase inhibitor from the marine snail Nerita versicolor; major isoform; UniProt P86912 (FHVPDDRPCINPGRCPLVPDATCTFVCKAADNDFGYECQHVWTFEGQRVGCYA; disulfide (positions not given here); also: three disulphides, pairing not given here; UniProt P86912 1-53, looked up)
bCPA1; natural isoforms, apparent Ki, without correction by competing assays, read-out: derived Ki towards bCPA (apparent Ki values)
  Ki: 0.027 ± 0.002 nM
bCPA1; tight-binding equation fit, equilibrium conditions, substrate AAFP 0.1mM, 20mM Tris-HCl pH 7.5, 500mM NaCl, preincubation 15 min, 37 °C, means (n = 3) ± SD, read-out: Ki
  Ki: 0.0096 ± 0.0014 nM
bTAFI
  Ki: 0.121 ± 0.0201 nM
hTAFI
  Ki: 0.393 ± 0.0219 nM
bCPA and hCPA1
  inhibitory capability / maximum potential activity by competitive titration: 50.4%

Reference: article PMC6780499, “Characterization, Recombinant Production and Structure-Function Analysis of NvCI, A Picomolar Metallocarboxypeptidase Inhibitor from the Marine Snail Nerita versicolor” (Marine Drugs, 2019)
